Source: PMC8757827, “A Novel Regulation of K-antigen Capsule Synthesis in Porphyromonas gingivalis Is Driven by the Response Regulator PG0720-Directed Antisense RNA”

T1: PG0720 response regulator (Porphyromonas gingivalis W83) (UniProt Q7MWB1)
T1 sequence: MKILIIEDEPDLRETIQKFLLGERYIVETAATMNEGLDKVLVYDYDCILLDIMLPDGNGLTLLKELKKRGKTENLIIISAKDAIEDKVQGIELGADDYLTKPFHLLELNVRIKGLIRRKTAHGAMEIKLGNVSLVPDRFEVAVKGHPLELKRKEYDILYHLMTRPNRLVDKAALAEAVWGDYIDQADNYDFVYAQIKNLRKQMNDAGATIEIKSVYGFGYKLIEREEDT

T2: PG0720 response regulator (Porphyromonas gingivalis W83, UniProt Q7MWB1 1-229)
T2 sequence: T1 sequence

B1: 77-bp region (77bpIR2) (dsDNA)
DNA 1: ATTCGCACTTGTTTGATAATTGAATGTAGCAATCATGAGATCTATAAGTGTGTAACGGTTCAAATGCGATTGTCCTG
DNA 2: CAGGACAATCGCATTTGAACCGTTACACACTTATAGATCTCATGATTGCTACATTCAATTATCAAACAAGTGCGAAT

Experiments:
[1] = biological target: T1, PG0720 response regulator (Porphyromonas gingivalis W83); assay: EMSA; settings: 10 mM HEPES pH 7.8, 50 mM KCl, 5 mM MgCl2, 1 mM DTT, 1 mM EDTA, 1 ug poly(dI-dC), 1 ug BSA, 10% glycerol, 20 mM acetyl phosphate, room temperature 30 min …
[2] = biological target: T1, PG0720 response regulator (Porphyromonas gingivalis W83); assay: DNase I footprinting; settings: 10 mM HEPES pH 7.8, 50 mM KCl, 5 mM MgCl2, 1 mM DTT, 1 mM EDTA, 1 ug poly(dI-dC), 1 ug BSA, 10% glycerol, 20 mM acetyl phosphate, room temperature 30 min …
[3] = biological target: T2, PG0720 response regulator; assay: EMSA; 20 mM acetyl phosphate; 5 mM Mg2+; up to 140 pmol protein, 3 fmol DNA; 10 mM HEPES pH 7.8, 50 mM KCl, 5 mM MgCl2, 1 mM DTT, 1 mM EDTA, 1 ug poly(dI-dC), 1 ug BSA, 10% glycerol, 20 mM acetyl phosphate, room temperature 30 min, 10 ul (50 ul for footprinting); settings: protein: recombinant; tags: none (N-His-SUMO removed by SUMO Express protease); chain copies: 2; label: 5' biotin; blunt

Row | Molecule | binding [1] | other results
1 | ACACATCACAACAATATCTTCAATAACATACCCCACATCCGCCCGTCTTCACTACGATCTAAATAAAATTTCCCCAATGACAAAACCGCCTTATTTTAAAAATTACACATAACAGAAAAAAGAGTGATTCTCATTATACTTTCTTTGACAATCAAATCCTTTCAACGATGATTTTTGAGACCCTAATAGAGCGCAAAGGTAATTAATTATCGTCTATATTCCTAAATCCCAGTGGAATGATTCAGGAC (double strand) [PG0106 upstream promoter 248-bp] | no binding | 
2 | CAAACAAGTGCGAATCCATATGTCAGAGATTCAAATCATAGAGGAAAGAGACTAAAAATTTTCAAACGCGATCGCCCTGACAGGCTACCCCCGGGGT (double strand) [asSuGR promoter 97-bp footprint probe] |  | binding [2]: binds
3 | TGTCAGGGCGATCGCGTTTGAAAATTTTTAGTCTCTTTCCTCTATGATTTGAATCTCTGACATATGG (double strand) [asSuGR promoter 67-bp] | binds | 
4 | TGTCAGGGCGATCGCGTTTGAAAATTTTTAGTCTCTTTCCTCTATGATTTGAATCTCTGACATATGGATTCGCACTTGTTTGATAATTGAATGTAGCAATCATGAGATCTATAAGTGTGTAACGGTTCAAATGCGATTGTCCTGAATCATTCCA (double strand) [asSuGR promoter 154-bp] | binds | 
5 | B1 |  | binding result [3]: no binding
